# Source: US12099068B2, “Biomarkers for graft-versus-host disease” (Incyte Corporation, priority 2018, dated 2024)
# B1: SIRT2 (protein, UniProt Q8IXJ6 2-389, looked up)
# NAD-dependent protein …: AEPDPSHPLETQAGKVQEAQDSDSDSEGGAAGGEADMDFLRNLFSQTLSLGSQKERLLDELTLEGVARYMQSERCRRVICLVGAGISTSAGIPDFRSPSTGLYDNLEKYHLPYPEAIFEISYFKKHPEPFFALAKELYPGQFKPTICHYFMRLLKDKGLLLRCYTQNIDTLERIAGLEQEDLVEAHGTFYTSHCVSASCRHEYPLSWMKEKIFSEVTPKCEDCQSLVKPDIVFFGESLPARFFSCMQSDFLKVDLLLVMGTSLQVQPFASLISKAPLSTPRLLINKEKAGQSDPFLGMIMGLGGGMDFDSKKAYRDVAWLGECDQGCLALAELLGWKKELEDLVRREHASIDAQSGAGVPNPSTSASPKKSPPPAKDEARTTEREKPQ
# B2: CEACAM5 (protein, UniProt P06731 35-685, looked up)
# Cell adhesion molecule CEACAM5: KLTIESTPFNVAEGKEVLLLVHNLPQHLFGYSWYKGERVDGNRQIIGYVIGTQQATPGPAYSGREIIYPNASLLIQNIIQNDTGFYTLHVIKSDLVNEEATGQFRVYPELPKPSISSNNSKPVEDKDAVAFTCEPETQDATYLWWVNNQSLPVSPRLQLSNGNRTLTLFNVTRNDTASYKCETQNPVSARRSDSVILNVLYGPDAPTISPLNTSYRSGENLNLSCHAASNPPAQYSWFVNGTFQQSTQELFIPNITVNNSGSYTCQAHNSDTGLNRTTVTTITVYAEPPKPFITSNNSNPVEDEDAVALTCEPEIQNTTYLWWVNNQSLPVSPRLQLSNDNRTLTLLSVTRNDVGPYECGIQNELSVDHSDPVILNVLYGPDDPTISPSYTYYRPGVNLSLSCHAASNPPAQYSWLIDGNIQQHTQELFISNITEKNSGLYTCQANNSASGHSRTTVKTITVSAELPKPSISSNNSKPVEDKDAVAFTCEPEAQNTTYLWWVNGQSLPVSPRLQLSNGNRTLTLFNVTRNDARAYVCGIQNSVSANRSDPVTLDVLYGPDTPIISPPDSSYLSGANLNLSCHSASNPSPQYSWRINGIPQQHTQVLFIAKITPNNNGTYACFVSNLATGRNNSIVKSITVSASGTSPGLSA
# B3: SIRPB1 (protein, UniProt O00241 30-398, looked up)
# Signal-regulatory protein …: EDELQVIQPEKSVSVAAGESATLRCAMTSLIPVGPIMWFRGAGAGRELIYNQKEGHFPRVTTVSELTKRNNLDFSISISNITPADAGTYYCVKFRKGSPDDVEFKSGAGTELSVRAKPSAPVVSGPAVRATPEHTVSFTCESHGFSPRDITLKWFKNGNELSDFQTNVDPAGDSVSYSIHSTARVVLTRGDVHSQVICEIAHITLQGDPLRGTANLSEAIRVPPTLEVTQQPMRAENQANVTCQVSNFYPRGLQLTWLENGNVSRTETASTLIENKDGTYNWMSWLLVNTCAHRDDVVLTCQVEHDGQQAVSKSYALEISAHQKEHGSDITHEAALAPTAPLLVALLLGPKLLLVVGVSAIYICWKQKA
# B4: HO-1 (protein, UniProt P09601 1-288, looked up)
# Heme oxygenase 1: MERPQPDSMPQDLSEALKEATKEVHTQAENAEFMRNFQKGQVTRDGFKLVMASLYHIYVALEEEIERNKESPVFAPVYFPEELHRKAALEQDLAFWYGPRWQEVIPYTPAMQRYVKRLHEVGRTEPELLVAHAYTRYLGDLSGGQVLKKIAQKALDLPSSGEGLAFFTFPNIASATKFKQLYRSRMNSLEMTPAVRQRVIEEAKTAFLLNIQLFEELQELLTHDTKDQSPSRAPGLRQRASNKVQDSAPVETPRGKPPLNTRSQAPLLRWVLTLSFLVATVAVGLYAM
# B5: PRELP (protein, UniProt P51888 21-382, looked up)
# Prolargin: QPTRRPRPGTGPGRRPRPRPRPTPSFPQPDEPAEPTDLPPPLPPGPPSIFPDCPRECYCPPDFPSALYCDSRNLRKVPVIPPRIHYLYLQNNFITELPVESFQNATGLRWINLDNNRIRKIDQRVLEKLPGLVFLYMEKNQLEEVPSALPRNLEQLRLSQNHISRIPPGVFSKLENLLLLDLQHNRLSDGVFKPDTFHGLKNLMQLNLAHNILRKMPPRVPTAIHQLYLDSNKIETIPNGYFKSFPNLAFIRLNYNKLTDRGLPKNSFNISNLLVLHLSHNRISSVPAINNRLEHLYLNNNSIEKINGTQICPNDLVAFHDFSSDLENVPHLRYLRLDGNYLKPPIPLDLMMCFRLLQSVVI
# B6: CX3CL1 (protein, UniProt P78423 25-397, looked up)
# Fractalkine: QHHGVTKCNITCSKMTSKIPVALLIHYQQNQASCGKRAIILETRQHRLFCADPKEQWVKDAMQHLDRQAAALTRNGGTFEKQIGEVKPRTTPAAGGMDESVVLEPEATGESSSLEPTPSSQEAQRALGTSPELPTGVTGSSGTRLPPTPKAQDGGPVGTELFRVPPVSTAATWQSSAPHQPGPSLWAEAKTSEAPSTQDPSTQASTASSPAPEENAPSEGQRVWGQGQSPRPENSLEREEMGPVPAHTDAFQDWGPGSMAHVSVVPVSSEGTPSREPVASGSWTPKAEEPIHATMDPQRLGVLITPVPDAQAATRRQAVGLLAFLGLLFCLGVAMFTYQSLQGCPRKMAGEMAEGLRYIPRSCGSNSYVLVPV
# B7: VSIG2 (protein, UniProt Q96IQ7 24-327, looked up)
# V-set and immunoglobulin …: VEVKVPTEPLSTPLGKTAELTCTYSTSVGDSFALEWSFVQPGKPISESHPILYFTNGHLYPTGSKSKRVSLLQNPPTVGVATLKLTDVHPSDTGTYLCQVNNPPDFYTNGLGLINLTVLVPPSNPLCSQSGQTSVGGSTALRCSSSEGAPKPVYNWVRLGTFPTPSPGSMVQDEVSGQLILTNLSLTSSGTYRCVATNQMGSASCELTLSVTEPSQGRVAGALIGVLLGVLLLSVAAFCLVRFQKERGKKPKETYGGSDLREDAIAPGISEHTCMRADSSKGFLERPSSASTVTTTKSKLPMVV
# B8: IDUA (protein, UniProt P35475 28-653, looked up)
# Alpha-L-iduronidase: APHLVHVDAARALWPLRRFWRSTGFCPPLPHSQADQYVLSWDQQLNLAYVGAVPHRGIKQVRTHWLLELVTTRGSTGRGLSYNFTHLDGYLDLLRENQLLPGFELMGSASGHFTDFEDKQQVFEWKDLVSSLARRYIGRYGLAHVSKWNFETWNEPDHHDFDNVSMTMQGFLNYYDACSEGLRAASPALRLGGPGDSFHTPPRSPLSWGLLRHCHDGTNFFTGEAGVRLDYISLHRKGARSSISILEQEKVVAQQIRQLFPKFADTPIYNDEADPLVGWSLPQPWRADVTYAAMVVKVIAQHQNLLLANTTSAFPYALLSNDNAFLSYHPHPFAQRTLTARFQVNNTRPPHVQLLRKPVLTAMGLLALLDEEQLWAEVSQAGTVLDSNHTVGVLASAHRPQGPADAWRAAVLIYASDDTRAHPNRSVAVTLRLRGVPPGPGLVYVTRYLDNGLCSPDGEWRRLGRPVFPTAEQFRRMRAAEDPVAAAPRPLPAGGRLTLRPALRLPSLLLVHVCARPEKPPGQVTRLRALPLTQGQLVLVWSDEHVGSKCLWTYEIQFSQDGKAYTPVSRKPSTFNLFVFSPDTGAVSGSYRVRALDYWARPGPFSDPVPYLEVPVPRGPPSPGNP
# B9: NCF2 (protein, UniProt P19878 1-526, looked up)
# Neutrophil cytosol factor 2: MSLVEAISLWNEGVLAADKKDWKGALDAFSAVQDPHSRICFNIGCMYTILKNMTEAEKAFTRSINRDKHLAVAYFQRGMLYYQTEKYDLAIKDLKEALIQLRGNQLIDYKILGLQFKLFACEVLYNIAFMYAKKEEWKKAEEQLALATSMKSEPRHSKIDKAMECVWKQKLYEPVVIPVGKLFRPNERQVAQLAKKDYLGKATVVASVVDQDSFSGFAPLQPQAAEPPPRPKTPEIFRALEGEAHRVLFGFVPETKEELQVMPGNIVFVLKKGNDNWATVMFNGQKGLVPCNYLEPVELRIHPQQQPQEESSPQSDIPAPPSSKAPGRPQLSPGQKQKEEPKEVKLSVPMPYTLKVHYKYTVVMKTQPGLPYSQVRDMVSKKLELRLEHTKLSYRPRDSNELVPLSEDSMKDAWGQVKNYCLTLWCENTVGDQGFPDEPKESEKADANNQTTEPQLKKGSQVEALFSYEATQPEDLEFQEGDIILVLSKVNEEWLEGECKGKVGIFPKVFVEDCATTDLESTRREV
# Test system: plasma proteins
# Test: Plasma proteins modulated between baseline and day 28 in responders (CR, VGPR, PR; n = 19), Example 6 (Table 13)
# Assay type: in vivo, human
# Settings: plasma protein (OLINK NPX); responders (CR, VGPR, PR; n = 19); itacitinib 200 mg or 300 mg QD with corticosteroids; day 28 vs baseline
# How it was run: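 Plasma at baseline/screening and day 28 profiled for >1000 proteins by OLINK proximity extension assay, reported as NPX (log2). Steroid-naive and steroid-refractory patients pooled. Paired and unpaired t tests, ANOVA and Pearson correlation applied; significance at P<0.05.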
molecule,measurement,value
B1,"Fold Change, Decreased Expression from Baseline to Day 28",−1.6014
B2,"Fold Change, Increased Expression from Baseline to Day 28",1.6422
B3,"Fold Change, Decreased Expression from Baseline to Day 28",−1.3991
B4,"Fold Change, Increased Expression from Baseline to Day 28",1.3293
B5,"Fold Change, Increased Expression from Baseline to Day 28",1.1833
B6,"Fold Change, Increased Expression from Baseline to Day 28",1.5454
B7,"Fold Change, Increased Expression from Baseline to Day 28",1.2163
B8,"Fold Change, Decreased Expression from Baseline to Day 28",−1.3887
B9,"Fold Change, Decreased Expression from Baseline to Day 28",−2.4951
